Paper PMC6005794, “Experimental and bioinformatic approach to identifying antigenic epitopes in human α- and β-enolases” (Biochemistry and Biophysics Reports, 2018)
Like-named read-outs stand apart in the source and are kept apart here.

Columns and labels:
[1] = system: anti-β-enolase antibodies; experiment: ELISA test with pin-tethered peptides; type: binding, rabbit; settings: relative to N^193VIKEKYGKDATN^205-GG-pin
Description: The peptides corresponding to predicted epitopes were synthesized using NCP Block of 96 hydroxypropylmethacrylate pins (MIMOTOPES, Clayton, Victoria, Australia) according to earlier described protocol. The synthesis was performed in 96-well plates, following the one-pin – one-peptide approach. Each pin was submerged in 100 μl of the solution containing 60 mM F-moc amino acid and an equimolar amount of diisopropylcarbodiimide and N-hydroxybenzotriazole as coupling reagents. Each coupling cycle lasted 4 h., and to assess the completion of the coupling reaction; pins were tested with 10 mM bromophenol blue for the presence of free amino groups. Peptides were deprotected and pins washed with MeOH, 0.5% acetic acid in MeOH, MeOH, dried, and stored at − 20 °C. […]
The TBST soaked pins were transferred to a 96-well plate filled with 200 μl of 1% BSA in TBST and incubated for 60 min at room temperature. […] The attached antibodies were detected after incubation of the pins with goat-anti-human IgG-alkaline phosphatase (AP) conjugate (ICN Biomedicals, Aurora, Ohio, USA, diluted according to the manufacturer's recommendations). The AP activity was measured to determine the level of the bound conjugate. […] The enzymatic reaction was stopped by removal of pins from the plate, and the amount of released p-nitrophenol was measured at 406 nm in a plate reader (PerkinElmer). […]

[2] = cited from earlier work
Source text: The ion-exchange chromatography was used to purify both α- and β-enolases. The method employed in this work takes advantage of different isoelectric point values calculated for human α- and β-enolases (7.38 and 7.72, respectively), muscle-specific enzymes from rat (7.45) and pig (8.8–9.0), [21]. The summary of human enolase isoenzymes purification is presented in Supplementary Table 1. The purity of the enolase preparations was examined at every purification step by SDS-PAGE and is shown on Supplementary Fig. S1.

[3] = storage stability (enolase activity); type: physicochemical; settings: 7.5 mM imidazole-HCl pH 6.8, 2.5 mM MgSO4, 50 mM NaCl, 50% glycerol, 4 °C
Description: At all stages of the enzyme purification, the magnesium sulfate and temperature set at 4 °C were used to prevent the loss of the enolase activity. Magnesium ions are essential for both catalysis and stability of the enolase dimer, [39]. Purification of β-enolase from human muscle tissue was performed according to the procedure described earlier. Briefly, 110 g of frozen striated muscle was homogenized in deionized water containing 3 mM MgSO4 and protease inhibitors PMSF (phenylmethylsulfonyl fluoride) and aprotinin (2 µg/ml). Homogenization was performed in PT3100D homogenizer (DanLab, Poland) at 4 °C for 10 min. The crude protein extract was incubated at 53–54 °C for 3 min, then cooled to 4 °C and denatured proteins removed by centrifugation at 9000 g for 45 min. The supernatant was fractionated with ammonium sulfate at 4 °C, by adding solid salt in small portions and by stirring gently. The mixture was left overnight at 4 °C after reaching 60% saturation of (NH4)2SO4 and precipitated proteins were centrifuged at 9000 g for 45 min and discarded. Protein precipitation was continued by adding solid (NH4)2SO4 up to 80% saturation, and after overnight storage at 4 C the precipitated proteins were centrifuged. The pellet was dissolved in 20 mM Tris-HCl buffer pH 9.0, containing 3 mM MgSO4 and 1 mM β − mercaptoethanol and dialyzed against this buffer. […]

[4] = muscle-specific enzymes from rat and pig

Molecule | isoelectric point ([2]; calculated for human enolases) | isoelectric point [2, 4] | further results
substitution of E^197 in N^193VIKEKYGKDATN^205-GG-pin with alanine: α-enolase epitope 2 peptide with E^197 substituted with alanine |  |  | loss of immunological activity on substitution [1]: 70%
human α-enolase: α-enolase purified from human kidney | 7.38 |  | 
human β-enolase: β-enolase purified from human skeletal muscle (protein, UniProt P13929 2-434, looked up) Beta-enolase: AMQKIFAREILDSRGNPTVEVDLHTAKGRFRAAVPSGASTGIYEALELRDGDKGRYLGKGVLKAVENINNTLGPALLQKKLSVVDQEKVDKFMIELDGTENKSKFGANAILGVSLAVCKAGAAEKGVPLYRHIADLAGNPDLILPVPAFNVINGGSHAGNKLAMQEFMILPVGASSFKEAMRIGAEVYHHLKGVIKAKYGKDATNVGDEGGFAPNILENNEALELLKTAIQAAGYPDKVVIGMDVAASEFYRNGKYDLDFKSPDDPARHITGEKLGELYKSFIKNYPVVSIEDPFDQDDWATWTSFLSGVNIQIVGDDLTVTNPKRIAQAVEKKACNCLLLKVNQIGSVTESIQACKLAQSNGWGVMVSHRSGETEDTFIADLVVGLCTGQIKTGAPCRSERLAKYNQLMRIEEALGDKAIFAGRKFRNPKAK | 7.72 |  | storage stability [3]: several months without loss of activity
muscle-specific enzyme from rat: rat muscle β-enolase (protein, UniProt P15429 2-434, looked up) Beta-enolase: AMQKIFAREILDSRGNPTVEVDLHTAKGRFRAAVPSGASTGIYEALELRDGDKSRYLGKGVLKAVEHINKTLGPALLEKKLSVVDQEKVDKFMIELDGTENKSKFGANAILGVSLAVCKAGAAEKGVPLYRHIADLAGNPDLVLPVPAFNVINGGSHAGNKLAMQEFMILPVGASSFKEAMRIGAEVYHHLKGVIKAKYGKDATNVGDEGGFAPNILENNEALELLKTAIQAAGYPDKVVIGMDVAASEFYRNGKYDLDFKSPDDPARHISGEKLGELYKSFIKNYPVVSIEDPFDQDDWATWTSFLSGVDIQIVGDDLTVTNPKRIAQAVEKKACNCLLLKVNQIGSVTESIQACKLAQSNGWGVMVSHRSGETEDTFIADLVVGLCTGQIKTGAPCRSERLAKYNQLMRIEEALGDKAVFAGRKFRNPKAK |  | 7.45 | 
muscle-specific enzyme from pig: pig muscle β-enolase (protein, UniProt Q1KYT0 2-434, looked up) Beta-enolase: AMQKIFAREILDSRGNPTVEVDLHTAKGRFRAAVPSGASTGIYEALELRDGDKSRYLGKGVLKAVEHINKTLGPALLEKKLSVVDQEKVDKFMIELDGTENKSKFGANAILGVSLAVCKAGAAEKGVPLYRHIADLAGNPDLVLPVPAFNVINGGSHAGNKLAMQEFMILPVGASSFREAMRIGAEVYHHLKGVIKGKYGKDATNVGDEGGFAPNILENNEALELLKTAIQAAGYPDKVVIGMDVAASEFYRNGKYDLDFKSPDDPSRHITGEKLGELYKSFIKNYPVVSIEDPFDQDDWKTWTSFLSGVNIQIVGDDLTVTNLKRIAQAVEKKACNCLLLKVNQIGSVTESIQACKLAQSNGWGVMVSHRSGETEDTFIADLVVGLCTGQIKTGAPCRSERLAKYNQLMRIEEALGDKAVFAGRKFRNPKAK |  | 8.8–9.0 | 
